Laboratory results as given in paper PMC4797280 (Nucleic Acids Research, 2016).
Like-named read-outs stand apart in the source and are kept apart here.

Tests used:
Assay in all cases: two-hybrid
[1] = target: S. cerevisiae Mre11 (LexA-Mre11) (S. cerevisiae) (UniProt P32829)
[2] = target: S. cerevisiae Mre11 (LexA-Mre11) (S. cerevisiae) (UniProt P32829); remark: listed apart in the source
[3] = target: T1, S. cerevisiae Mre11 (LexA-Mre11) (S. cerevisiae, UniProt P32829 1-692)
T1 sequence (looked up): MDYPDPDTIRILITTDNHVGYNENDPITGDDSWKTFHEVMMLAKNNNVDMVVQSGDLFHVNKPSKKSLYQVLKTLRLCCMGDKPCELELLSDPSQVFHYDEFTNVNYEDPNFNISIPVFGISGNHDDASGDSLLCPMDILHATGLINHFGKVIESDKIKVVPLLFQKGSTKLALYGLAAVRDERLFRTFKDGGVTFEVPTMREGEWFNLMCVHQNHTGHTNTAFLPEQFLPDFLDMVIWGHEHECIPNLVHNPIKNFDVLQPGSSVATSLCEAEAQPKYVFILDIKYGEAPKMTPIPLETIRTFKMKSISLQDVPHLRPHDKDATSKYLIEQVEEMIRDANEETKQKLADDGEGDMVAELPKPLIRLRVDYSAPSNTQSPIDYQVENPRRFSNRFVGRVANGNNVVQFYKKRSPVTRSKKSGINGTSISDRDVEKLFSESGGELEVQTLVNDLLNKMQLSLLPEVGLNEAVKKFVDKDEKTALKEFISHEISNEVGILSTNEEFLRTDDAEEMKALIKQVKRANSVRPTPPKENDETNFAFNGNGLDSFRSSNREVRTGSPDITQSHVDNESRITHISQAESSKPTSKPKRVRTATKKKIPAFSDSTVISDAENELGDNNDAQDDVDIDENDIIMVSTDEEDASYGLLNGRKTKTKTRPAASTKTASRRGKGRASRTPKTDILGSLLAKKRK

[4] = target: T2, Mre11^I158R (LexA-Mre11^I158R) (S. cerevisiae, UniProt P32829 1-692, I158R)
T2 sequence (looked up): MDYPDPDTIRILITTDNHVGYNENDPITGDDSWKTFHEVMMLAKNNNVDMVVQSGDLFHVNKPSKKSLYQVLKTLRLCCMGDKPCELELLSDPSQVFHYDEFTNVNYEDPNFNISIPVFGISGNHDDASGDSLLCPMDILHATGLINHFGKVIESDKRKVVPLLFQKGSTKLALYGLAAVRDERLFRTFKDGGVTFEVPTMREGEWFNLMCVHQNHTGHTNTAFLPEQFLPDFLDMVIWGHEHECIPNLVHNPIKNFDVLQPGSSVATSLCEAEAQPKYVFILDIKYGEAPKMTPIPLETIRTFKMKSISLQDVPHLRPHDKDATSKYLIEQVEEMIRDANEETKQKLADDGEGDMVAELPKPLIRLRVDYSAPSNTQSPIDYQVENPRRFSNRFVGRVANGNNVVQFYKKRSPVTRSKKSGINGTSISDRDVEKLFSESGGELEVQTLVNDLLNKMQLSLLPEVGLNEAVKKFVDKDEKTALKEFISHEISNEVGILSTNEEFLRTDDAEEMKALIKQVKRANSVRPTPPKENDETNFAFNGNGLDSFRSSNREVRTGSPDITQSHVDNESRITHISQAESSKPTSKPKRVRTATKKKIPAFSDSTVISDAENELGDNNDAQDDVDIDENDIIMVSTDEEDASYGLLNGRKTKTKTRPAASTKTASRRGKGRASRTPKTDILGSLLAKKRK

[5] = target: T3, Mre11^D16A (LexA-Mre11^D16A) (S. cerevisiae, UniProt P32829 1-692, D16A)
T3 sequence (looked up): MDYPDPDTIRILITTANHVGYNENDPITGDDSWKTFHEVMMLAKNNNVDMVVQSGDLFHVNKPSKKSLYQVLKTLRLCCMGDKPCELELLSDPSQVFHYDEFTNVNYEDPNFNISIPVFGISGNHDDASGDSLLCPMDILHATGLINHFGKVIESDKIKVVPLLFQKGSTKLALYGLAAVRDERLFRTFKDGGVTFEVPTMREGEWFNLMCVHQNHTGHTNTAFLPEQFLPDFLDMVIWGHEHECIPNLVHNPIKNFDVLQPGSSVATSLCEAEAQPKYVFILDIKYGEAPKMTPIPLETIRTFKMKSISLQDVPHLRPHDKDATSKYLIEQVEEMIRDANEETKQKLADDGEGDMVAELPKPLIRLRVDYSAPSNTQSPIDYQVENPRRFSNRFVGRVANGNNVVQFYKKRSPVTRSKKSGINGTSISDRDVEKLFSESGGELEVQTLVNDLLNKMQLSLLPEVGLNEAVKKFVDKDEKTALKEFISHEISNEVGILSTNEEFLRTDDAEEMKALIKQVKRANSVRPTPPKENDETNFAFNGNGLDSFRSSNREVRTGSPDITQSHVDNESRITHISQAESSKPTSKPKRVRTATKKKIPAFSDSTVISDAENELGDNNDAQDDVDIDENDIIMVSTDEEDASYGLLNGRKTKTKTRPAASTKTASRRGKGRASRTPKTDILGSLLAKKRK

[6] = target: T4, Mre11^P84S (LexA-Mre11^P84S) (S. cerevisiae, UniProt P32829 1-692, P84S)
T4 sequence (looked up): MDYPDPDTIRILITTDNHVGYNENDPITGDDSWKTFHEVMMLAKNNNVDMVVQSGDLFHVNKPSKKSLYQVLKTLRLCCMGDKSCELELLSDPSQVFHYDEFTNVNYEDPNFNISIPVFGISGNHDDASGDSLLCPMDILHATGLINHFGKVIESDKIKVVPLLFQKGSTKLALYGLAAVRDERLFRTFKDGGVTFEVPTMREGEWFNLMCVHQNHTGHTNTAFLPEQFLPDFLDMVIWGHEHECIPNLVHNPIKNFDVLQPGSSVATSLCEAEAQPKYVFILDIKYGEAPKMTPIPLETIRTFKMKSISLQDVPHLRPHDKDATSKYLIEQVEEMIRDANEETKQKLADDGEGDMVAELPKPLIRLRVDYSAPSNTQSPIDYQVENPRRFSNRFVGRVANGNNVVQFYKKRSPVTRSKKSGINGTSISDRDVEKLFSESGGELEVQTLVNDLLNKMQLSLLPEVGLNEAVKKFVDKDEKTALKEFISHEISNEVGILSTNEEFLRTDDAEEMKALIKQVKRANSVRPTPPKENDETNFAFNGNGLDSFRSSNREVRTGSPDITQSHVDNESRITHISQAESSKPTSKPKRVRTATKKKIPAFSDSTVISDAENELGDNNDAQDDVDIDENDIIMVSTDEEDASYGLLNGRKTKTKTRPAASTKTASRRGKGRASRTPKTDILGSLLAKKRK

[7] = target: T5, Mre11^T188I (LexA-Mre11^T188I) (S. cerevisiae, UniProt P32829 1-692, T188I)
T5 sequence (looked up): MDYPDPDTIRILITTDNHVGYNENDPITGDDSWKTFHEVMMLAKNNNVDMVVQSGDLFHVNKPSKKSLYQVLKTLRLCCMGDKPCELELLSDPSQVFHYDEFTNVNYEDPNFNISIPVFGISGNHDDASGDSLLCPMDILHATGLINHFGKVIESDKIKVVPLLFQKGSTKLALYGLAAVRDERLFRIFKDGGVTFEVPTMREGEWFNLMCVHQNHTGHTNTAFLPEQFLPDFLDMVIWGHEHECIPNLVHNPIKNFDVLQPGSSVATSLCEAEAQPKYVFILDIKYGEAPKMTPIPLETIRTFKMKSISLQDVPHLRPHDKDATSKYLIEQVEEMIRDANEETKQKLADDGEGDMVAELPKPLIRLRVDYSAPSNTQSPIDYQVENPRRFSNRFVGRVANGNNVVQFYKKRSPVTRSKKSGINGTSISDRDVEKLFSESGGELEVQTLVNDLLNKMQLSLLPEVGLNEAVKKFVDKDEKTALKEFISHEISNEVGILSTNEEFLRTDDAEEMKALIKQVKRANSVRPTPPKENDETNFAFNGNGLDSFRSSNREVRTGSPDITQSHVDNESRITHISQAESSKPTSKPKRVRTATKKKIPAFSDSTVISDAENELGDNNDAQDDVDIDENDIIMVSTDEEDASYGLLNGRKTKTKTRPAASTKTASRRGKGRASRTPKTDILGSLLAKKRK

[8] = target: T1, S. cerevisiae Mre11 (LexA-Mre11); remark: listed apart in the source
[9] = target: T2, Mre11^I158R (LexA-Mre11^I158R); remark: listed apart in the source

Work on “Smt3-allR (Gal4AD-Smt3^allR) (from UniProt Q12306 1-101) (natural protein)” yielded a two-hybrid β-galactosidase activity (β-galactosidase units) [1] of 21.8 and a two-hybrid β-galactosidase activity (β-galactosidase units) [2] of 5.4.

“Smt3 (Gal4AD-Smt3) (from UniProt Q12306 1-101) (natural protein)” showed a two-hybrid β-galactosidase activity (β-galactosidase units) [1] of 71.9 and a two-hybrid β-galactosidase activity (β-galactosidase units) [2] of 38.8.

B1: Xrs2 (Gal4AD-Xrs2) (natural protein, S. cerevisiae, UniProt P33301 1-854, looked up)
chain: MWVVRYQNTLEDGSISFISCCLQAFKTYSIGRSSKNPLIIKNDKSISRQHITFKWEINNSSDLKHSSLCLVNKGKLTSLNKKFMKVGETFTINASDVLKSTIIELGTTPIRIEFEWINEVWNIPPHLTQFRTMLSEYGISTEISINDIPANLMISDYPKSEDNSIRELYALVSTIPMKKSRFLMELCNTLLPTSKTNLKFDEMWNDMISNPEYNVFDFDPNILLSKFMRLNNIRVLTTIKSEPRLSSLLRTFNINLFAFDNIDSLYKYVDSLEASTEYLILTTTDKKENGKILCTIKTMLTSIIDGTLSAVINMKGASSRTLDNGKFDQISEGMSTILKTSRAPEVEASPVVSKKRKLNRRRVLPLDSLDFFAGGLSTKTLSENRSLTDAKRLNCGAESKTVISSPNIAEADEKHAPFLQNALKPTEDIGKKSGHSSPGAIIVSSPNLGTVNTSEDSLDKSLQSHKLPQPSLPEVAGIGSQTISSNSADYETAAVNSMDDAEVTKNFRVNHHQNIEQPSKNIRKLSNYSREISSPLQENCKSPVKELSIKEKSGTPHAFVEAIQETKNREVKRVKSTIVELKDEELSEEAINQLKNLAIVEPSNNLLRKSFDSEGNKTSRTTEKWENSLMEPEWHKRKNFKTFVKVRPKSKAHKEEGKNNTQSSDFIRNAAFLITRNYVPLKKYSKKDTTTKWGTEENEDMFALTEMERFGSNTFMSDNINSNTIQKRSQALNRFTNEDSSNEGEEDSFSFSRCSGTAASVQPLKNKIFITDEDDLGDIDDKSDRLNHRENNRNLFVVKEMNLRPNLSEECSKQSRHSRSATSRSRGSFGASNNGDGDDDDDDGPKFTFKRRKG
In the case of B1, the “two-hybrid β-galactosidase activity” value [3] is reported as 188 ± 8.5 β-galactosidase units, the “two-hybrid β-galactosidase activity” value [4] is reported as 37.9 ± 4 β-galactosidase units and the “two-hybrid β-galactosidase activity” value [5] is reported as 76.2 ± 7 β-galactosidase units. The “two-hybrid β-galactosidase activity” value [6] was 162 ± 6.4 β-galactosidase units, the “two-hybrid β-galactosidase activity” value [7] was 153 ± 4.7 β-galactosidase units and the “two-hybrid β-galactosidase activity” value [8] was 125 ± 9.5 β-galactosidase units. For the same molecule, the “two-hybrid β-galactosidase activity” value [9] was 35.1 ± 1 β-galactosidase units.

B2: Smt3 (Gal4AD-Smt3) (natural protein, S. cerevisiae, UniProt Q12306 1-101, looked up)
chain: MSDSEVNQEAKPEVKPEVKPETHINLKVSDGSSEIFFKIKKTTPLRRLMEAFAKRQGKEMDSLRFLYDGIRIQADQTPEDLDMEDNDIIEAHREQIGGATY
In the case of B2, the “two-hybrid β-galactosidase activity” value [6] is reported as 51.7 ± 3.1 β-galactosidase units and the “two-hybrid β-galactosidase activity” value [7] is reported as 60.1 ± 3.6 β-galactosidase units.
